For the data set, the system named is Bacillus subtilis. As to the kind of experiment: cleaved RNA product abundance (RNA/gDNA barcode ratio) relative to median wild-type variant (ratio to wild type); higher = more accumulation of the downstream cleavage product. In a few lines: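 Cleaved product abundance was measured with barcoded reporter mRNAs (truncated aprE or tetM) carrying mutagenized RNase Y cleavage-site windows in the B. subtilis chromosome. Cultures in LB at 37°C grew from OD600 0.0003 to 0.3. Gel-selected cleaved RNA was reverse transcribed and barcode-sequenced with genomic DNA barcodes, and the RNA:gDNA barcode ratio per construct was scaled to the median construct bearing the unmutated site.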

Setting [1] is: experiment (reporter, strain, medium): exp 8a: truncated aprE reporter, strain BJT201 with 2% xylose (RNase J1 expressed), cleavage site: glnRA (positions -5 to +31 mutated).
Setting [2] is: experiment (reporter, strain, medium): exp 2b: truncated aprE reporter, strain BJT200, cleavage site: cggR-gapA (positions -7 to +36 mutated).
[3] abbreviates: experiment (reporter, strain, medium): exp 4a: truncated aprE reporter, strain BJT201 with 2% xylose (RNase J1 expressed), cleavage site: cggR-gapA (positions -7 to +36 mutated).

“CGACATGTCCCGCTTCTTTCATTAATCCGTAAGCAACTGTTTTGCTATATACATTTACGTTTTAAGAGGAGGAAT”: the “cleaved RNA product abundance” value under setting [1] is 0.475. On to “CGACATGTCCCGCTTCTTTCATTAAACCGTTAGCAACTGTTTTGCTATATACATTTACCATTTAAGAGGAGGAAT”, for which the “cleaved RNA product abundance” value under setting [1] was found to be 1.29. As to “ACAGACGAAGGAGCCGCAAAGAATTTATTAAGGGAAGAATAATCCCTCAATATAAATATCTCTCACTTATTTAAA”, the “cleaved RNA product abundance” value by setting is: under setting [2], 0.289; under setting [3], 0.518. Regarding “ACAGACGAAGGAGCCGCAAATAAGTTATTATGGGATGAATAATCCCTCAATATAAATATCTCTCACTTATTTAAA”, the “cleaved RNA product abundance” value under setting [3] amounted to 0.365. For the sequence “ACAGACGAAGGAGCCGCAAAGAAGTTATAAAGGGATGAATAACCCCTCAATATAAATATCTCTCACTTATTTAAA”, the “cleaved RNA product abundance” value under setting [3] is 0.261. On the same count and under the same terms, to “ACAGACGAAGGAGCCGCAAAGAAGTTATTAAGGGATCTATAATCCCTCAATATAAATATCTCTCACTTATTTAAA” belongs 0.87. For the sequence “CGACATGTCCCGCTTCTTTCATTAATCCGTTAGCAACTGTATTGCTATATACATTTACCTTTTAAGAGGAGGAAT”, under setting [1], the “cleaved RNA product abundance” value was determined as 0.943.

On to “CGACATGTCCCGCTTCTTTCATTAATCCGTGAGCAACTGTTTTGCTATATAAATTTACCTTTTAAGAGGAGGAAT”, for which the “cleaved RNA product abundance” value under setting [1] was found to be 0.357.

With “ACAGACGAAGGAGCCGCAAAGAAGATATTAAGGGATGAATAATCCCTCAATATAAATATCTCTCACTTATTTAAA”, the “cleaved RNA product abundance” value under setting [2] stood at 0.68; the “cleaved RNA product abundance” value under setting [3] is 0.751; the “cleaved RNA product abundance” value (experiment (reporter, strain, medium): exp 6: tetM reporter, strain 168, cleavage site: cggR-gapA (positions -7 to +36 mutated)) amounted to 0.612. As to “ACAGACGAAGGAGCCGCAAAGAAGTTATTAAGGGATGAATAATCACTTAATATAAATATCTCTCACTTATTTAAA”, the “cleaved RNA product abundance” value came to 0.584 under setting [2] and 0.498 under setting [3]. As for “CGACATGTCCCGCTTCTTTCATAATCCGTTAGCAACTGTTTTGCTATATACATTTACCTTTTAAGAGGAGGAATT”, the “cleaved RNA product abundance” value under setting [1] was determined as 1.13. Consider “CGACATGTCCCGCTTCTTTCATTAATCCGTTAGCAACTGTTTCGCTATATACATTTACCTTTTAAGAGGAGGAAT”, for which the “cleaved RNA product abundance” value under setting [1] was determined as 0.358. Consider “ACAGACGAAGGAGCCGCAAAGAAGTTATTAAGGGATAGATAATCCCTCAATATAAATATCTCTCACTTATTTAAA”, for which the “cleaved RNA product abundance” value under setting [3] is 0.791. Same read-out and setting: to “ACAGACGAAGGAGCCGCAAAGAAGTTATTAAGAGATGAATGATCCCTCAATATAAATATCTCTCACTTATTTAAA” belongs 0.0837.

As to “CGACATGTCCCGCTTCTTTCATTAATCCGTTAGCAACTTTTTTGCTATATACATATACCTTTTAAGAGGAGGAAT”, the “cleaved RNA product abundance” value under setting [1] amounted to 2.12. Regarding “ACAGACGAAGGAGCCGCAAAGAAGTTATTAAGGGATGAATAATCCCTAAAGATAAATATCTCTCACTTATTTAAA”, the “cleaved RNA product abundance” value under setting [2] turned out to be 0.259.

In the case of “ACAGACGAAGGAGCCGCAATGAAGTTACTAAGGGATGAATAATCCCTCAATATAAATATCTCTCACTTATTTAAA”, the “cleaved RNA product abundance” value under setting [3] amounted to 0.249.

As for “ACAGACGAAGGAGCCGCAAAGAAGTTATTAAGGCATGAATAATCTCTCAATATAAATATCTCTCACTTATTTAAA”, the “cleaved RNA product abundance” value reads like this: under setting [2], 0.0853; under setting [3], 0.125. Consider “ACAGACGAAGGAGCCGCAAAGAAATTGTTAAGGGATGAATAATCCCTCAATATAAATATCTCTCACTTATTTAAA”, for which, under setting [2], the “cleaved RNA product abundance” value is 0.377. “ACAGACGAAGGAGCCGCAAAGAAGTTATTAATGGATGAATAATCCCGCAATATAAATATCTCTCACTTATTTAAA”: the “cleaved RNA product abundance” value under setting [3] turned out to be 0.144. For “ACAGACGAAGGAGCCGCAATGTAGTTATTAAGGGATGAATAATCCCTCAATATAAATATCTCTCACTTATTTAAA”, under setting [3], the “cleaved RNA product abundance” value was 1.43. Consider “ACAGACGAAGGAGCCGCAAAGAAGTTATTAAGGGATGAATAATCCCTAAATATAGATATCTCTCACTTATTTAAA”, for which the “cleaved RNA product abundance” value under setting [2] stood at 0.495 and the “cleaved RNA product abundance” value under setting [3] was 0.551. As for “CGACATGTCCCGCTTCTTTCATTATTCCGTTAGCGACTGTTTTGCTATATACATTTACCTTTTAAGAGGAGGAAT”, under setting [1], the “cleaved RNA product abundance” value came out at 0.759. For “ACAGACGAAGGAGCCGCGAAGAAGTTATTAAGGGATGAATAATCCGTCAATATAAATATCTCTCACTTATTTAAA”, under setting [2], the “cleaved RNA product abundance” value amounted to 0.145. For the sequence “ACAGACGAAGGAGCCGCAAAGAAGTTATTAAGGGATGAATAATCACCCAATATAAATATCTCTCACTTATTTAAA”, the “cleaved RNA product abundance” value under setting [3] amounted to 0.129. On to “ACAGACGAAGGAGCCGCAAAGAAGTTATTAAGGGATGAATAATCCATCATTATAAATATCTCTCACTTATTTAAA”, for which the “cleaved RNA product abundance” value under setting [2] was 0.158. “CGACATGTCCCGCTTCTTTCATTACTCCGTTAGCAACTCTTTTGCTATATACATTTACCTTTTAAGAGGAGGAAT”: the “cleaved RNA product abundance” value under setting [1] worked out at 1.33.

As to “ACAGACGAAGGAGCCGCAAAGATGTTATTAAGAGATGAATAATCCCTCAATATAAATATCTCTCACTTATTTAAA”, under setting [3], the “cleaved RNA product abundance” value came out at 0.156. Regarding “CGACATGTCCCGCTTCTTTCATTAATCCGTTAGTAAGTGTTTTGCTATATACATTTACCTTTTAAGAGGAGGAAT”, the “cleaved RNA product abundance” value under setting [1] stood at 0.265. As for “ACAGACGAAGGAGCCGCAAAGAAGTAATTAAGGGATGAATAATCACTCAATATAAATATCTCTCACTTATTTAAA”, the “cleaved RNA product abundance” value under setting [3] turned out to be 0.109. “CGACATGTCCCGCTTCTTTCATTAATCCGTTAGCAACTGTTTTGCTATCTAAATTTACCTTTTAAGAGGAGGAAT”: the “cleaved RNA product abundance” value under setting [1] worked out at 0.123.

Turning to “ACAGACGAAGGAGCCGCAAAGAAGTTATGAAGGGATGAATAATCCATCAATATAAATATCTCTCACTTATTTAAA”, the “cleaved RNA product abundance” value under setting [2] was 0.185.

As for “ACAGACGAAGGAGCCGCAAAGAAGTTATTAAGGGATAAATAATCCCTCAATATAAATAACTCTCACTTATTTAAA”, the “cleaved RNA product abundance” value under setting [3] is 0.823. With “ACAGACGAAGGAGCCGCAAAAAGGTTATTAAGGGATGAATAATCCCTCAATATAAATATCTCTCACTTATTTAAA”, the “cleaved RNA product abundance” value under setting [3] turned out to be 1.68. For “ACAGACGAAGGAGCCGCAAAGAAGTTCTTAAGGAATGAATAATCCCTCAATATAAATATCTCTCACTTATTTAAA”, the “cleaved RNA product abundance” value under setting [3] came to 0.133. For the sequence “ACAGACGAAGGAGCCGCAAAGAAGTTATTAAGGGACGAATAATACCTCAATATAAATATCTCTCACTTATTTAAA”, the “cleaved RNA product abundance” value under setting [3] came to 0.12. The same measure, in the same setting: to “ACAGACGAAGGAGCCGCAAAGGAGTTATTAAGGGATGAAAAATCCCTCAATATAAATATCTCTCACTTATTTAAA” belongs 0.576. Turning to “CGACATGTCCCGCTTCTTTCATTAATCCGTTACCAACTATTTTGCTATATACATTTACCTTTTAAGAGGAGGAAT”, the “cleaved RNA product abundance” value under setting [1] stood at 0.178.

In the case of “CGACATGTCCCGCTTCTTTCATTAACCCGTTAGCAACTGTTTTGCTATATACATTTACATTTTAAGAGGAGGAAT”, the “cleaved RNA product abundance” value under setting [1] came out at 2.01. Regarding “ACAGACGAAGGAGCCGCAAAGAAGTTATTAAGGGATTAATAATCCCTCAATATAAACATCTCTCACTTATTTAAA”, the “cleaved RNA product abundance” value under setting [3] was 0.803. For “ACAGACGAAGGAGCCGCAAAGAAGTTAGTAAGGTATGAATAATCCCTCAATATAAATATCTCTCACTTATTTAAA”, under setting [3], the “cleaved RNA product abundance” value came to 0.135. With “ACAGACGAAGGAGCCGCAAAAAAGTTATTAAGGGATGAATAGTCCCTCAATATAAATATCTCTCACTTATTTAAA”, the “cleaved RNA product abundance” value came out at 0.786 under setting [2] and 0.961 under setting [3]. The corresponding values for “ACAGACGAAGGAGCCGCAAAGAAGTTATTAAACGATGAATAATCCCTCAATATAAATATCTCTCACTTATTTAAA” are 0.0904 and 0.109. As to “CGACATGTCCCGCTTCTTTCATTAATTCGTTAGCAACTGTTTTGCTATATACATTTAACTTTTAAGAGGAGGAAT”, the “cleaved RNA product abundance” value under setting [1] was determined as 1.68. With “ACAGACGAAGGAGCCGCGAAGAAGTTATTAACGGATGAATAATCCCTCAATATAAATATCTCTCACTTATTTAAA”, the “cleaved RNA product abundance” value under setting [2] is 0.164 and the “cleaved RNA product abundance” value under setting [3] was 0.185. Take “ACAGACGAAGGAGCCGCAATGAAGTTATTAAGGGATGAATAATCCCTCAATATTAATATCTCTCACTTATTTAAA”: the “cleaved RNA product abundance” value under setting [2] amounted to 0.226. For the sequence “ACAGACGAAGGAGCCGCAAAGAAGTTATTAATGGATGAATAATCCCTCAATATTAATATCTCTCACTTATTTAAA”, the “cleaved RNA product abundance” value under setting [3] stood at 0.0604. For “CGACATGTCCCGCTTCTTTCATTAATCCGTTAGCAACTGTTTTGCTACATACATTTACCTTTTAAGAGGAGGAAT”, under setting [1], the “cleaved RNA product abundance” value is 0.368. On to “ACAGACGAAGGAGCCGCAAAGAAGTTATTAAGGGATAAAAAATCCATCAATATAAATATCTCTCACTTATTTAAA”, for which the “cleaved RNA product abundance” value under setting [2] came to 0.123. Take “CGACATGTCCCGCTTCTTTCATTATTCCGTTAGCAACTGTTTTGCTATATAAATTTACCTTTTAAGAGGAGGAAT”: the “cleaved RNA product abundance” value under setting [1] worked out at 0.753. On to “CGACATGTCCCGCTTCTTTCATTAATCCGTTAGAAACTGTTTCGCTATATACATTTACCTTTTAAGAGGAGGAAT”, for which, under setting [1], the “cleaved RNA product abundance” value amounted to 0.12.

As for “CGACATGTCCCGCTTCTTTCATTAATCCGTTAGTAACTGTTTTTCTATATACATTTACCTTTTAAGAGGAGGAAT”, the “cleaved RNA product abundance” value under setting [1] was 0.688. With “ACAGACGAAGGAGCCGCAAAGAACTTATTAAGGGATGAATAATCCCTCAAGATAAATATCTCTCACTTATTTAAA”, the “cleaved RNA product abundance” value runs as follows: under setting [2], 0.165; under setting [3], 0.185.

Consider “ACAGACGAAGGAGCCGCAAATAAGTTATAAAGGGATGAATAATCCCTCAATATAAATATCTCTCACTTATTTAAA”, for which the “cleaved RNA product abundance” value under setting [2] was 0.337 and the “cleaved RNA product abundance” value under setting [3] was determined as 0.421. The matching figures for “ACAGACGAAGGAGCCGCAAAGAAGTTATTAAGGGAAGAATAATCCTTCAATATAAATATCTCTCACTTATTTAAA”: 0.13 and 0.144.

Values taken from the supplement of paper PMC11780869.
